Test results taken from PMC11944484, “Metronidazole Activation by a Deeply Entangled Dimeric Malic Enzyme in Entamoeba histolytica” (Pathogens, 2025).

Tests used:
[1] = target: T1, EhME (Entamoeba histolytica malic enzyme; rEhME) (Entamoeba histolytica, UniProt Q9NH04); experiment: NADPH formation at […] nm, inhibition kinetics; assay type: biochemical
T1 construct: gene CL6EHI_044970; full-length ORF in pQE30, N-terminal His6 tag (cleavage not mentioned), expressed in E. coli M15; Ni-NTA and Superdex 200; apparent 53 kDa; entangled homodimer with composite active site
T1 sequence (Q9NH04 1-487): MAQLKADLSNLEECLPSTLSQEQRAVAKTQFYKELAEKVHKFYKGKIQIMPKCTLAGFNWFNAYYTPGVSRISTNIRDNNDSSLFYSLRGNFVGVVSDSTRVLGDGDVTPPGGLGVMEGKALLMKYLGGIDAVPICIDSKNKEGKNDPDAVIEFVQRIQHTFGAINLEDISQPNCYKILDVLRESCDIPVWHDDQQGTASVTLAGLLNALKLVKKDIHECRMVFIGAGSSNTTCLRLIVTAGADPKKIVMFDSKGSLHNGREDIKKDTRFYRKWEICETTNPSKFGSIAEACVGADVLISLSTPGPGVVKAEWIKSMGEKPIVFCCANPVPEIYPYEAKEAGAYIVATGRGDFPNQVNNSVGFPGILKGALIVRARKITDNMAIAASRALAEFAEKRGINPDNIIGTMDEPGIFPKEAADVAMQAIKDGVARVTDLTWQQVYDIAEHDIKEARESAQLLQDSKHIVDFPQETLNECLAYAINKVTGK

[2] = substrate: NC(=O)c1ccc[n+]([C@@H]2O[C@H](COP(=O)(O)OP(=O)(O)OC[C@H]3O[C@@H](n4cnc5c(N)ncnc54)[C@H](OP(=O)(O)O)[C@@H]3O)[C@@H](O)[C@H]2O)c1; experiment: purified protein; assay type: biochemical, Entamoeba histolytica; conditions: L-malate at saturation, NADP+ varied 0.1-0.5 mM, 5 mM MnCl2, 50 mM Tris-Cl pH 7.4, 30 °C, apparent Km, varied: cofactor
[3] = substrate: O=C(O)C[C@H](O)C(=O)O; experiment: purified protein; assay type: biochemical, Entamoeba histolytica; conditions: NADP+ at saturation, L-malate varied 5-15 mM, 5 mM MnCl2, 50 mM Tris-Cl pH 7.4, 30 °C, apparent Km
[4] = target: the molecule itself; experiment: SEC; gel filtration chromatography of purified EhME; conditions of the analysis not told apart from the purification step (Superdex 200, 10 mM Tris, 150 mM NaCl, 10 mM DTT, pH 8.0)

Question: How did the Ki [1] turn out when `Nc1ncnc2c1ncn2[C@@H]1O[C@H](COP(=O)(O)OP(=O)(O)OP(=O)(O)O)[C@@H](O)[C@H]1O` [ATP] was run?
Answer: Its Ki is 650 µM.

B1: Entamoeba histolytica malic enzyme (enzyme, UniProt Q9NH04 1-487, looked up)
chain: T1 sequence (Q9NH04 1-487)
notes: Entamoeba histolytica malic enzyme, gene PCR-amplified from genomic DNA with primers from the ATG start codon to the stop codon; cloned into pQE30; Homodimer with two interlocked (knotted) protomers; also called EhME; rEhME; source: E. coli M15 (pQE30), purified (Ni-NTA, Superdex 200 gel exclusion chromatography)
Question: Which Km [2] does the source give for B1 here?
Answer: Its Km is 46.67 ± 6.0 µM.

Question: What about the kcat [2] of the same molecule?
Answer: The kcat was 14.57 s⁻¹.

Question: What about the Km [3] of the same molecule?
Answer: The Km was 570 ± 80 µM.

Question: What about the kcat [3] of the same molecule?
Answer: The kcat was 41.7 s⁻¹.

Question: And the “stoichiometry N” value [4]?
Answer: The value was 2.
